From patent publication US20210403546A1 (LUDWIG INSTITUTE FOR CANCER RESEARCH, published 2021) come the findings set out here.

B1: 13A1_DH Fab (LCR13A1_VK_GLv1_08 + LCR13A1_VH_GLv1_06) (Fab, V domains shown)
VH: QVQLVQSGSVLAKPGASVKVSCKASGYTFTNYWTHWVRQAPGQGLEWIGTIYPGNSDTNYNQKFKDRAKLTAVTSTSTVYMELSSLRSEDTALYYCTREDSRSLNFNGWDYFDHWGQGTLVTVSS
VL: DIVMTQSPDSLAVSLGQRASISCRASESVDNYGISFLNWFQQKPGQPPKLLIYAASNQGSGVPSRFSGSGSGTDFTLNIHPLEAEDAATYYCQQSKEVPRTFGGGTKVEIK
notes: Human stabilized IgG1 Fab, 6xHis on CH1
B2: 13A1_AH Fab (LCR13A1_VK_GLv3_02 + LCR13A1_VH_GLv1_06) (Fab, V domains shown)
VH: QVQLVQSGSVLAKPGASVKVSCKASGYTFTNYWTHWVRQAPGQGLEWIGTIYPGNSDTNYNQKFKDRAKLTAVTSTSTVYMELSSLRSEDTALYYCTREDSRSLNFNGWDYFDHWGQGTLVTVSS
VL: DIVMTQSPDSLAVSLGERATINCKSSESVDNYGISFLNWYQQKPGKAPKLLIYAASNQGSGVPDRFSGSGSGTDFTLTISSLQAEDAAVYFCQQSKEVPRTFGGGTKLEIK
notes: as for B1
B3: 13A1_CG Fab (LCR13A1_VK_GLv1_07 + LCR13A1_VH_GLv1_05) (Fab, V domains shown)
VH: QVQLVQSGSVLAKPGASVKVSCKASGYTFTNYWTHWVRQAPGQGLEWIGTIYPGNSDTNYNQKFKDRAKLTAVTSTSTVYMELSSLRSEDTALYYCTREDSRSLYYNGWDYFDHWGQGTLVTVSS
VL: DIVMTQSPDSLAVSLGERATISCRASESVDNYGISLLNWFQQKPGQPPKLLIYAASNQGSGVPSRFSGSGSGTDFTLNIHPLEAEDAATYYCQQSKEVPRTFGGGTKVEIK
notes: as for B1
B4: 13A1_EH Fab (LCR13A1_VK_GLv1_09 + LCR13A1_VH_GLv1_06) (Fab, V domains shown)
VH: QVQLVQSGSVLAKPGASVKVSCKASGYTFTNYWTHWVRQAPGQGLEWIGTIYPGNSDTNYNQKFKDRAKLTAVTSTSTVYMELSSLRSEDTALYYCTREDSRSLNFNGWDYFDHWGQGTLVTVSS
VL: DIVMTQSPDSLAVSLGQRASISCRASESVDNYGISLLNWYQQKPGQPPKLLIYAASNQGSGVPSRFSGSGSGTDFTLNIHPLEAEDAATYYCQQSKEVPRTFGGGTKVEIK
notes: as for B1
B5: 13A1_AF Fab (LCR13A1_VK_GLv3_02 + LCR13A1_VH_GLv1_04) (Fab, V domains shown)
VH: QVQLVQSGSVLAKPGASVKVSCKASGYTFTNYWMHWVRQAPGQGLEWIGTIYPGNSDTNYNQKFKDRAKLTAVTSTSTVYMELSSLRSEDTAVYYCTREDSRSLNFNGWDYFDYWGQGTLVTVSS
VL: DIVMTQSPDSLAVSLGERATINCKSSESVDNYGISFLNWYQQKPGKAPKLLIYAASNQGSGVPDRFSGSGSGTDFTLTISSLQAEDAAVYFCQQSKEVPRTFGGGTKLEIK
notes: Human stabilized IgG1 Fab: VH-CH1(IgG1)-6xHis and VK-CK, CK/CH1 with the stabilizing mutations of Chen et al 2016
B6: 13A1_BG Fab (LCR13A1_VK_GLv1_06 + LCR13A1_VH_GLv1_05) (Fab, V domains shown)
VH: QVQLVQSGSVLAKPGASVKVSCKASGYTFTNYWTHWVRQAPGQGLEWIGTIYPGNSDTNYNQKFKDRAKLTAVTSTSTVYMELSSLRSEDTALYYCTREDSRSLYYNGWDYFDHWGQGTLVTVSS
VL: DIVMTQSPDSLAVSLGERATISCRASESVDNYGISFLNWYQQKPGQPPKLLIYAASNQGSGVPSRFSGSGSGTDFTLNIHPLEAEDAATYYCQQSKEVPRTFGGGTKVEIK
notes: as for B1
B7: 13A1_DF Fab (LCR13A1_VK_GLv1_08 + LCR13A1_VH_GLv1_04) (Fab, V domains shown)
VH: QVQLVQSGSVLAKPGASVKVSCKASGYTFTNYWMHWVRQAPGQGLEWIGTIYPGNSDTNYNQKFKDRAKLTAVTSTSTVYMELSSLRSEDTAVYYCTREDSRSLNFNGWDYFDYWGQGTLVTVSS
VL: DIVMTQSPDSLAVSLGQRASISCRASESVDNYGISFLNWFQQKPGQPPKLLIYAASNQGSGVPSRFSGSGSGTDFTLNIHPLEAEDAATYYCQQSKEVPRTFGGGTKVEIK
notes: as for B1
B8: 13A1_BF Fab (LCR13A1_VK_GLv1_06 + LCR13A1_VH_GLv1_04) (Fab, V domains shown)
VH: QVQLVQSGSVLAKPGASVKVSCKASGYTFTNYWMHWVRQAPGQGLEWIGTIYPGNSDTNYNQKFKDRAKLTAVTSTSTVYMELSSLRSEDTAVYYCTREDSRSLNFNGWDYFDYWGQGTLVTVSS
VL: DIVMTQSPDSLAVSLGERATISCRASESVDNYGISFLNWYQQKPGQPPKLLIYAASNQGSGVPSRFSGSGSGTDFTLNIHPLEAEDAATYYCQQSKEVPRTFGGGTKVEIK
notes: as for B1
B9: 13A1_EG Fab (LCR13A1_VK_GLv1_09 + LCR13A1_VH_GLv1_05) (Fab, V domains shown)
VH: QVQLVQSGSVLAKPGASVKVSCKASGYTFTNYWTHWVRQAPGQGLEWIGTIYPGNSDTNYNQKFKDRAKLTAVTSTSTVYMELSSLRSEDTALYYCTREDSRSLYYNGWDYFDHWGQGTLVTVSS
VL: DIVMTQSPDSLAVSLGQRASISCRASESVDNYGISLLNWYQQKPGQPPKLLIYAASNQGSGVPSRFSGSGSGTDFTLNIHPLEAEDAATYYCQQSKEVPRTFGGGTKVEIK
notes: as for B1
B10: 13A1_CF Fab (LCR13A1_VK_GLv1_07 + LCR13A1_VH_GLv1_04) (Fab, V domains shown)
VH: QVQLVQSGSVLAKPGASVKVSCKASGYTFTNYWMHWVRQAPGQGLEWIGTIYPGNSDTNYNQKFKDRAKLTAVTSTSTVYMELSSLRSEDTAVYYCTREDSRSLNFNGWDYFDYWGQGTLVTVSS
VL: DIVMTQSPDSLAVSLGERATISCRASESVDNYGISLLNWFQQKPGQPPKLLIYAASNQGSGVPSRFSGSGSGTDFTLNIHPLEAEDAATYYCQQSKEVPRTFGGGTKVEIK
notes: as for B1
B11: 13A1_DG Fab (LCR13A1_VK_GLv1_08 + LCR13A1_VH_GLv1_05) (Fab, V domains shown)
VH: QVQLVQSGSVLAKPGASVKVSCKASGYTFTNYWTHWVRQAPGQGLEWIGTIYPGNSDTNYNQKFKDRAKLTAVTSTSTVYMELSSLRSEDTALYYCTREDSRSLYYNGWDYFDHWGQGTLVTVSS
VL: DIVMTQSPDSLAVSLGQRASISCRASESVDNYGISFLNWFQQKPGQPPKLLIYAASNQGSGVPSRFSGSGSGTDFTLNIHPLEAEDAATYYCQQSKEVPRTFGGGTKVEIK
notes: as for B1
B12: 13A1_BH Fab (LCR13A1_VK_GLv1_06 + LCR13A1_VH_GLv1_06) (Fab, V domains shown)
VH: QVQLVQSGSVLAKPGASVKVSCKASGYTFTNYWTHWVRQAPGQGLEWIGTIYPGNSDTNYNQKFKDRAKLTAVTSTSTVYMELSSLRSEDTALYYCTREDSRSLNFNGWDYFDHWGQGTLVTVSS
VL: DIVMTQSPDSLAVSLGERATISCRASESVDNYGISFLNWYQQKPGQPPKLLIYAASNQGSGVPSRFSGSGSGTDFTLNIHPLEAEDAATYYCQQSKEVPRTFGGGTKVEIK
notes: as for B1
B13: 13A1_CH Fab (LCR13A1_VK_GLv1_07 + LCR13A1_VH_GLv1_06) (Fab, V domains shown)
VH: QVQLVQSGSVLAKPGASVKVSCKASGYTFTNYWTHWVRQAPGQGLEWIGTIYPGNSDTNYNQKFKDRAKLTAVTSTSTVYMELSSLRSEDTALYYCTREDSRSLNFNGWDYFDHWGQGTLVTVSS
VL: DIVMTQSPDSLAVSLGERATISCRASESVDNYGISLLNWFQQKPGQPPKLLIYAASNQGSGVPSRFSGSGSGTDFTLNIHPLEAEDAATYYCQQSKEVPRTFGGGTKVEIK
notes: as for B1
B14: 13A1_EF Fab (LCR13A1_VK_GLv1_09 + LCR13A1_VH_GLv1_04) (Fab, V domains shown)
VH: QVQLVQSGSVLAKPGASVKVSCKASGYTFTNYWMHWVRQAPGQGLEWIGTIYPGNSDTNYNQKFKDRAKLTAVTSTSTVYMELSSLRSEDTAVYYCTREDSRSLNFNGWDYFDYWGQGTLVTVSS
VL: DIVMTQSPDSLAVSLGQRASISCRASESVDNYGISLLNWYQQKPGQPPKLLIYAASNQGSGVPSRFSGSGSGTDFTLNIHPLEAEDAATYYCQQSKEVPRTFGGGTKVEIK
notes: as for B1
B15: 13A1_AG Fab (LCR13A1_VK_GLv3_02 + LCR13A1_VH_GLv1_05) (Fab, V domains shown)
VH: QVQLVQSGSVLAKPGASVKVSCKASGYTFTNYWTHWVRQAPGQGLEWIGTIYPGNSDTNYNQKFKDRAKLTAVTSTSTVYMELSSLRSEDTALYYCTREDSRSLYYNGWDYFDHWGQGTLVTVSS
VL: DIVMTQSPDSLAVSLGERATINCKSSESVDNYGISFLNWYQQKPGKAPKLLIYAASNQGSGVPDRFSGSGSGTDFTLTISSLQAEDAAVYFCQQSKEVPRTFGGGTKLEIK
notes: as for B1

The target in the test is T1, human recombinant TGF-b1 (human, UniProt P01137 279-390).
T1 construct: also called TGF-β1; hTGF-β1
T1 sequence (P01137 279-390 limits assumed): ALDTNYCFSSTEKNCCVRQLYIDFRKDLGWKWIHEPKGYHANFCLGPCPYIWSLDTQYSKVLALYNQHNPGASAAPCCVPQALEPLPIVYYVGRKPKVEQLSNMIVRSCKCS
Put plainly: SPR (Biacore T200), 10 nM Fab over amine-coupled TGFb1 (492 RUs). As for the experimental part: FIG. 27 provides Biacore analysis of the new mutant variant antibodies and compares the new mutants versus parent variant 13A1-2F and versus mu13A1. Selected variants have different monovalent (huIgG1 stabilized Fab format). Biacore binding kinetics, range from lower to higher than the parental mouse 13A1 (mu13A1, hybrid with mouse VK/VH and huCK/huCH1). The data presented is ka, kd and apparent KD. TGFb1 (chip): 492 Rus, Fabs: 10 nM, Flow rate: 30 ul/min, Contact time: 510s, Diss. Time: 600s. Quality: Chi(2)<=1% Rmax and U score <=5. Data is presented for mutant variant antibodies 13A1_AF, 13A1_AG, 13A1_AH, 13A1_BF, 13A1_BG, 13A1_BH, 13A1_CF, 13A1_CG, 13A1_CH, 13A1_DF, 13A1_DG, 13A1_DH, 13A1_EF, 13A1_EG and 13A1_EH.
SPR binding analysis of Fabs: Experiments were performed using the Biacore T200 equipped with the Series S sensor chip CMS (GE Healthcare, cat. #BR-1005-30). The instrument temperature was set at 25° C. for all steps in the analysis while the compartment temperature was set at 10° C. All the assays were performed using the running buffer HBS-EP+ 1×. Recombinant TGF-β1 (Biocat, cat. #TG1-H4212-50 ug-AC) was immobilized with the standard amine-coupling chemistry using a solution of the ligand at 1 ug/mL in acetate, pH 4.5. Recombinant TGF-β1 was injected for several minutes to achieve a target density of 492 RUs. For TGF-β1 kinetic analysis Fabs were diluted in running buffer to 10 nM. One buffer blank was always injected before the injection of the antibody sample. The antibodies were then injected for 8.5 minutes (510 s) at 30 uL/min with 600 seconds of dissociation time. Regeneration was performed with 60 seconds of injection at 30 uL/min of 10 mM glycine 1.5. The Biacore binding kinetics range from lower to higher than the parental mouse 13A1 (mu13A1, hybrid with mouse VK/VH and huCK/huCH1.
(In SPR one partner is held on a chip, and binding of the other changes the refractive index at the surface.)
Regarding B1, the binding result is given as “binds”.

Consider B2, for which the binding result is given as “binds”.

For the molecule B3, the binding result is “binds”.

For B4, the binding result is listed as “binds”.

For B5, the binding result is on record as “binds”.

With B6, the binding result was “binds”.

For B7, the binding result is “binds”.

For B8, the binding result is “binds”.

In the case of B9, the binding result is reported as “binds”.

For the molecule B10, the binding result is on record as “binds”.

As for B11, the binding result is on record as “binds”.

Regarding B12, the binding result is on record as “binds”.

Take B13: the binding result is recorded as “binds”.

With B14, the binding result is given as “binds”.

As for B15, the binding result was “binds”.
